Publication PMC6091153
“And” between values parts separate entries of the source, which are not always exact repeats. Equal values may be shown once.

Biological target: Saccharomyces cerevisiae glutaredoxin Grx6 (recombinant, without the signal peptide) (S. cerevisiae) (UniProt Q12438)
Assay: SEC; gel filtration of freshly purified recombinant protein on a Superdex 75 column, elution followed at 280 nm and 430 nm; the dimer peak is brown (Fe-S centre); FeSO4·7H2O and (NH4)2Fe(SO4)2·6H2O added in one run (more dimer and tetramer)

Saccharomyces cerevisiae glutaredoxin Grx6 (recombinant, without the signal peptide) (from UniProt Q12438 30-231) (natural protein)
stoichiometry N: 4 and 2
